Reference: patent publication US20250333541A1, “ANTIBODY, AND DRUG CONJUGATE AND USE THEREOF” (EVOPOINT BIOSCIENCES CO., LTD., priority 2022, published 2025)

Experiments:
human TF-His [1] = target: T1, human TF-His (human, UniProt P13726 33-251); assay: ELISA, plate coated with h.TF-His
T1 construct: range 33-251; Recombinant extracellular segment expressed in HEK293-EBNA cells and purified on a nickel column; also called h.TF-His; h; TF-his; not shown: His tag from vector pTT5-His
Procedure: (§1) The ELISA plate was coated overnight with TF antigen (h.TF-His or c.TF-His antigen) in 50 mM carbonate coating buffer (CBS coating solution) at a coating concentration of 1 μg/mL in a volume of 100 μL at 4° C. The next day, the coating solution was removed, each well was washed once with 300 μL of PBS, and 100 μL of 2% BSA (Biotopped, A6020) in PBS was added to each well for blocking at 37° C. for 2 h. The test sample was subjected to a gradient dilution with 2% BSA in PBS to establish 11 concentration points. 100 μL of each of the samples obtained by the gradient dilution was added to the plate, and the plate was incubated at 37° C. for 2 h. The supernatant was removed, and each well was washed three times with 300 μL of PBST. 100 μL of HRP-conjugated secondary antibody in 2% BSA was added to each well, and the plate was incubated at 37° C. for 1 h. […] At the end of the incubation, the secondary antibody was removed, each well was washed five times with 300 μL of PBST, and 100 μL of TMB substrate (Huzhou InnoReagents Co., Ltd., TMB-S-004) was added to each well for color development for 5-20 min. 50 μL of 2 N HCl was added to each well to stop the reaction, and OD450 nm values were read using a microplate reader (manufacturer: MD, model: SpectraMax) and imported into GraphPad software for fitting and plotting to determine the binding of the samples to TF antigenic proteins.
The assay was performed as described in the general methods. Briefly, an ELISA plate coated with a human TF-his protein or a cynomolgus monkey TF-his protein was blocked with 2% BSA at 37° C. for 2 h, and each of the antibodies obtained by the gradient dilution (starting at 10 μg/mL, 3-fold graded dilution, 11 concentration points) was added. The plate was incubated at 37° C. for 2 h.

[2] = target: T2, tissue factor (TF) on the surface of TF-positive tumor cells (human, UniProt P13726 33-295); assay: cell-based or functional assay
human TF-His [3] = target: T1, human TF-His; assay: antigenic protein-based ELISA, before conjugation (TF antigen species not stated)
Procedure: as §1

[4] = target: T2, tissue factor (TF) on the surface of …; assay: cell ELISA on fixed NCI-H358 cells
Procedure: TF antigen-positive cells (MDA-MB-231 or NCI-H358 cells) were seeded into a 96-well plate at 5×10⁴ cells/well one day prior to the experiment. On the day of the experiment, the culture supernatant was removed, each well was washed once with 300 μL of PBS, and 100 μL of 4% paraformaldehyde was added to each well for immobilization at room temperature for 20 min. The paraformaldehyde was removed, and each well was washed twice with 300 μL of PBS, and 100 μL of 2% BSA in PBS was added to each well for blocking at 37° C. for 2 h. After the blocking was completed, 30 μL of the test sample (hybridoma supernatant or purified antibody) was added to each well and the plate was incubated at 37° C. for 2 h. The liquid was removed, and each well was washed three times with 300 μL of PBST. 100 μL of HRP-conjugated secondary antibody in 2% BSA was added to each well, and the plate was incubated at 37° C. for 1 h. […] The secondary antibody was removed, each well was washed five times with 300 μL of PBST, and 100 μL of TMB substrate (Huzhou InnoReagents Co., Ltd., TMB-S-004) was added to each well for color development for 5-20 min. 50 μL of 2 N HCl was added to each well to stop the reaction, and OD450 nm values were read using a microplate reader (manufacturer: MD, model: SpectraMax) to determine the binding of the samples to TF-positive cells.
The assay was performed as described in the general methods. Briefly, TF antigen-positive NCI-H358 cells were digested with trypsin, collected, seeded into a 96-well plate at 5×10⁴ cells/well and incubated overnight, and then immobilized with 4% paraformaldehyde. After the paraformaldehyde was removed and the cells were washed with PBS, the plate was blocked with 2% BSA at 37° C. for 2 h. Each of the antibodies obtained by the gradient dilution (starting at 10 μg/mL, 3-fold graded dilution, 11 concentration points) was added. The plate was incubated at 37° C. for 2 h.

[5] = target: T2, tissue factor (TF) on the surface of …; assay: cell-based or functional assay; remark: listed apart in the source
[6] = target: T2, tissue factor (TF) on the surface of …; assay: flow cytometry on NCI-H358 cells
Procedure: (§2) A TF low/medium-expressing cell line NCI-H358 (source: Nanjing Cobioer, CBP60136) and a TF high-expressing cell line KYSE520 (source: Nanjing Cobioer, CBP60658) were digested with trypsin, collected by centrifugation, and washed three times with pre-cooled PBS. The cells were resuspended in 1% BSA and seeded into a 96-well sharp-bottom plate at 3×10⁵ cells/well. Each of the antibodies obtained by the gradient dilution was added, and the plate was incubated at 4° C. for 1 h. The cells were washed three times with pre-cooled PBS. 1 μL of anti-human fluorescent secondary antibody (APC anti-human IgG Fc Antibody, Biolegend, 410712) was added to each well, and the plate was incubated at 4° C. for 0.5 h. The cells were washed three times with pre-cooled PBS, resuspended, and detected by a flow cytometer (Sony, LE-SA3800GA). The data were imported into GraphPad software for curve fitting.

[7] = target: T2, tissue factor (TF) on the surface of …; assay: cell-based or functional assay; remark: listed apart in the source
human TF-His [8] = target: T1, human TF-His; assay: antigenic protein-based ELISA on TF antigen (coating antigen not named, taken as human TF-His), antibody diluted in human serum, 0 days at 37 C
Procedure: as §1, with “proteins. […]” for “proteins.”

[9] = target: T2, tissue factor (TF) on the surface of …; assay: flow cytometry on KYSE520 cells
Procedure: as §2

Binder | EC50 (human TF-His [1]) [µg/mL] | coagulation time V50 (s), MDA-MB-231 cells + human plasma, 2 mM Ca2+, 50 µg/mL antibody [2] [s] | coagulation time V50 (s), MDA-MB-231 cells + human plasma, 5 mM Ca2+, 20 µg/mL antibody [2] [s] | EC50 (human TF-His [3]) [µg/mL] | EC50 [4] [µg/mL] | IC50 (ng/mL), inhibition of FVIIa-induced IL-8 release by MDA-MB-231 cells [5] [ng/mL] | Maximum inhibition rate (%), FVIIa-induced IL-8 release by MDA-MB-231 cells [5] [%] | EC50 [6] [µg/mL] | Endocytosis rate (%) on NCI-H358 cells, 2 h [7] [%] | Endocytosis rate (%) on NCI-H358 cells, 4 h [7] [%] | EC50 (read off the curve) (human TF-His [8]) [µg/mL] | EC50 [9] [µg/mL]
22F11H5-hz1 (antibody, human IgG1, kappa, V domains shown, Humanized IgG1 kappa) VH: QVQLVQSGAEVKQPGASVKVSCKASGYTFTTYWMHWVRQAPGQGLEWMGMIDPSDSYTTYAQKFQGRVTLTVDTSTSTAYMELSSLRSEDTAVYYCARGSGPGLFAYWGQGTLVTVSS VL: DIQETQSPSSLSASVGDRVTITCRASQDIRNYLNWYQQKPGKAPKLLIYHTSRLQSGVPSRFSGSGSGTDYTLTISSLQPEDFATYYCQQGNMPPYTFGQGTKVEIKR | 0.00858 | 1640 | 49.4 | 0.00515 | 0.012 | 180 | 94.3 | 0.0671 | 34.3 | 56.1 | ~0.03 | 0.0357
27H8H3-hz1 (antibody, human IgG1, kappa, V domains shown, Humanized IgG1 kappa) VH: QVQLVQSGAEVKKPGASVKVSCKASGYTFTTYWMHWVRQAPGQGLEWMGMIDPSDSYTSYAQKFQGRVTLTVDTSTSTAYMELSSLRSEDTAVYYCTRGSGPGLFAYWGQGTLVTVSS VL: DIQETQSPSSLSASVGDRVTITCRASQGISNYLNWYQQKPGKAPKLLIYHTSRLHSGVPSRFSGSVSGTDFTLTISSLQPEDFATYFCQQGNTLPYTFGQGTKVEIKR | 0.00815 | 750 | 26.2 | 0.00313 | 0.0348 | 463 | 100 | 0.0991 | 49.2 | 73.4 | ~0.05 | 0.0594
